Results as given in paper PMC11988251.

Target: HuROR2-mFc
Assay: ELISA

Substance	EC50 (pH 6.0, 1.26 g/L sodium bicarbonate, 0.09 g/L L-lactic acid) [µg/mL]	EC50 (pH 7.4, 1.26 g/L sodium bicarbonate, 0.09 g/L L-lactic acid)	EC50 (pH 6.0, 2.5 g/L sodium bicarbonate) [µg/mL]	EC50 (pH 7.4, 2.5 g/L sodium bicarbonate)
BA302	0.0119	no meaningful EC50 could be calculated		
BA3021			0.0563	no meaningful EC50 could be calculated
